Results reported in publication PMC12514839 (Protein science : a publication of the Protein Society, 2025).

Target: CU228, putative PAS-HTH transcription factor from Candidatus Solibacter usitatus (Candidatus Solibacter usitatus)
Experiment: SEC-MALS

- stoichiometry N: 2
Substance: CU228, putative PAS-HTH transcription factor from Candidatus Solibacter usitatus (natural protein)
